# Changes are numbered by the printed parent chain.
# B1: 1.11-6GS-2.1 (bispecific antibody, not shown: small tags and cut ends)
# chain: EVQLLESGGGLVQPGGSLRLSCAASGFSFSSYALSWVRQAPGKGLEWVSSIGENNDTTDYADNVKGRFTISRDNSKNTLYLQMNSLRVEDTAVYYCVKDGVHWGQGTLVTVSSGGGGSGGGGSGGGGSGGGGSGGGGSGGGGSEVQLVESGGGVVQPGRSLRLSCAASGFSFSGYGMHWVRQAPGKGLEWVAYISYDGSNKYYADSVKGRFTISRDNSKNTLYLQMNSLRAEDTAVYYCAKDPAWGLRLGESSSYDFDIWGQGTMVTVSS
# B2: 1.11-6GS-2.17 (bispecific antibody, not shown: small tags and cut ends)
# chain: B1 chain with G198A, S206N
# B3: 1.11-6GS-2.22 (bispecific antibody, not shown: small tags and cut ends)
# chain: B1 chain with M177T, D205A, S206P, P243A
# B4: 1.16-6GS-2.1 (bispecific antibody, not shown: small tags and cut ends)
# chain: B1 chain with D56H, N63T
# B5: 1.16-6GS-2.17 (bispecific antibody, not shown: small tags and cut ends)
# chain: B1 chain with D56H, N63T, G198A, S206N
# B6: 1.16-6GS-2.22 (bispecific antibody, not shown: small tags and cut ends)
# chain: B1 chain with D56H, N63T, M177T, D205A, S206P, P243A
# B7: 1.18-6GS-2.1 (bispecific antibody, not shown: small tags and cut ends)
# chain: B1 chain with D56A, D62A, N63S
# B8: 1.18-6GS-2.17 (bispecific antibody, not shown: small tags and cut ends)
# chain: B1 chain with D56A, D62A, N63S, G198A, S206N
# B9: 1.18-6GS-2.22 (bispecific antibody, not shown: small tags and cut ends)
# chain: B1 chain with D56A, D62A, N63S, M177T, D205A, S206P, P243A
# B10: 1.1-6GS-2.1 (bispecific antibody, not shown: small tags and cut ends)
# chain: B1 chain with L34M, N55D, D56G, N63S, N77S, T78M
# B11: 1.1-6GS-2.15 (bispecific antibody, not shown: small tags and cut ends)
# chain: B1 chain with L34M, N55D, D56G, N63S, N77S, T78M, M177L, G198K, S206K
# B12: 1.1-6GS-2.17 (bispecific antibody, not shown: small tags and cut ends)
# chain: B1 chain with L34M, N55D, D56G, N63S, N77S, T78M, G198A, S206N
# B13: 1.1-6GS-2.22 (bispecific antibody, not shown: small tags and cut ends)
# chain: B1 chain with L34M, N55D, D56G, N63S, N77S, T78M, M177T, D205A, S206P, P243A
# B14: 1.11-6GS-2.15 (bispecific antibody, not shown: small tags and cut ends)
# chain: B1 chain with M177L, G198K, S206K
# B15: 1.16-6GS-2.15 (bispecific antibody, not shown: small tags and cut ends)
# chain: B1 chain with D56H, N63T, M177L, G198K, S206K
# B16: 1.18-6GS-2.15 (bispecific antibody, not shown: small tags and cut ends)
# chain: B1 chain with D56A, D62A, N63S, M177L, G198K, S206K
# B17: HiPEG D-His6 val-cit-PAB-MMAE (other)
# VH: EVQLLESGGGLVQPGGSLRLSCAASGFRISDEDMGWVRQAPGKGLEWVSSIYGPSGSTYYADSVKGRFTISRDNSKNTLYLQMNSLRAEDTAVYYCASALEPLSEPLGFWGQGTLVTVSSAAAHHHHHH
# modifications: HiPEG val-cit-PAB-MMAE attached via the C-terminal His6 tag
# B18: single VH domain antibody 9.1 (VHH)
# VHH: QVQLQQWGAGLLKPSETLSLTCAVYGGSFSGHYWSWIRQPPGKGLEWIGDINHSGSTNYNPSLKSRVTISVDTSKNQFSLKLSSVTAADTAVYYCVRDYGDSRSLFDYWGQGTLVTVSS
# notes: human single VH domain (Humabody); not shown: C-terminal His tag
# B19: single VH domain antibody 8.1 (VHH)
# VHH: QVQLQQWGAGLLKPSETLSLTCAVYGGSFSGYYWSWIRQPPGKGLEWIGEINHSGSTNYNPSLKSRVTISVDTSKNQFSLKLSSVTAADTAVYYCARGPIPATAIPDAFDIWGQGTMVTVSS
# notes: as for B18
# Molecular target: T1, human PSMA (prostate specific membrane antigen), full-length, expressed on cells (human, UniProt Q04609 1-750)
# T1 sequence (Q04609 whole entry): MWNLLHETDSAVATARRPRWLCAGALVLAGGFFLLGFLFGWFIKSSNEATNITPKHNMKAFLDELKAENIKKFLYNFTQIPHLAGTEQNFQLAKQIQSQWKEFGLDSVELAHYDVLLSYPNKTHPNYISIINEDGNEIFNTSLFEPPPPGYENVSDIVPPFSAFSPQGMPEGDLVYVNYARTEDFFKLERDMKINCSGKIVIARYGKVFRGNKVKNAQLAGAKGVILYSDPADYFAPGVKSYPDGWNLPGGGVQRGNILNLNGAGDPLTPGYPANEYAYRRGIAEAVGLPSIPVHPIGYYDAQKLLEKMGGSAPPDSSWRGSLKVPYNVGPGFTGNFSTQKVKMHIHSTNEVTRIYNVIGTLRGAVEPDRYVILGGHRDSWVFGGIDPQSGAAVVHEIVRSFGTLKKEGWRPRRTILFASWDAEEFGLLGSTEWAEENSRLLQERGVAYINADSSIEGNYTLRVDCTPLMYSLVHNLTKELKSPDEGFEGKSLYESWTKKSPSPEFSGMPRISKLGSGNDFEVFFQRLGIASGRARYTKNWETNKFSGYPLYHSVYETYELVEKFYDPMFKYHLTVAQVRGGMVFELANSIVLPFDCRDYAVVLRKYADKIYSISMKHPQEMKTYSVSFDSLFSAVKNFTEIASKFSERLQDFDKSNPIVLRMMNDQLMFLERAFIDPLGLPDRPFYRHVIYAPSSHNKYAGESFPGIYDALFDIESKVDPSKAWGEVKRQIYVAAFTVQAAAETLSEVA
# Test: cell-based or functional assay
row,Binder,"His-ZAP cell killing, human PSMA Average EC50"
1,B1,17 pM
2,B2,7.9 pM
3,B3,10 pM
4,B4,14 pM
5,B5,15 pM
6,B6,20 pM
7,B7,5.7 pM
8,B8,12 pM
9,B9,15 pM

# Molecular target: cynomolgus PSMA, full-length, expressed on CHO cells (cynomolgus, UniProt A0A2K5VNZ0 1-750)
# Test: cell-based or functional assay
row,Binder,"His-ZAP cell killing, cyno PSMA Average EC50"
1,B1,12 pM
2,B10,12 pM
3,B11,8.6 pM
4,B12,11 pM
5,B13,7.8 pM
6,B14,9 pM
7,B2,8.1 pM
8,B3,9.5 pM
9,B4,13 pM
10,B15,11 pM
11,B5,11 pM
12,B6,11 pM
13,B7,5.8 pM
14,B16,10 pM
15,B8,5.6 pM
16,B9,14 pM

# Molecular target: T1, human PSMA (prostate specific membrane …)
# Test: cell-based or functional assay
# Remark: another data set of the same source
Binder,"PSMA-DU145 cytotoxicity assay (72 h), IC50","PSMA-DU145 cytotoxicity assay (72 h), IC50 (toxin)"
B17,> 100 nM,> 100 nM

# Molecular target: T2, recombinant human PSMA (R&D, cat. no. 4234-ZN) (human, UniProt Q04609 44-750)
# T2 construct: also called rhPSMA; Recombinant PMSA
# T2 sequence (Q04609 44-750 limits assumed): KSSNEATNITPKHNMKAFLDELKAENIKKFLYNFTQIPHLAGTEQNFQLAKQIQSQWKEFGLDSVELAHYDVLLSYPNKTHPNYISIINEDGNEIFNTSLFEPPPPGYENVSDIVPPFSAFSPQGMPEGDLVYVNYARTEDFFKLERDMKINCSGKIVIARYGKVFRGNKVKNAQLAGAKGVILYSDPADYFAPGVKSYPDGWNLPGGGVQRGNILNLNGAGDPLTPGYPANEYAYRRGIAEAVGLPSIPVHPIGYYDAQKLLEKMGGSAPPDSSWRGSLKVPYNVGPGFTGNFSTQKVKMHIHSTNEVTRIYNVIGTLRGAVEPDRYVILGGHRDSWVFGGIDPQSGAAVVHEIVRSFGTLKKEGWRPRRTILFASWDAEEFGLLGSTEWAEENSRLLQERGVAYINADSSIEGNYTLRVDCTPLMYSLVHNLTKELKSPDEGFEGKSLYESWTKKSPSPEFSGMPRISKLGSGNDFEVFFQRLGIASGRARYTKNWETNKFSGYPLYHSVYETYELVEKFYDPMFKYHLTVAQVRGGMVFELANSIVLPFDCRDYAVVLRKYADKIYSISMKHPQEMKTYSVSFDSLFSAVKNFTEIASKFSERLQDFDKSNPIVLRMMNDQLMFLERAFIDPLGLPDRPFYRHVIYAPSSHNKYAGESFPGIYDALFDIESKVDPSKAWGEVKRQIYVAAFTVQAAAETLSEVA
# Test: periprep/phage screen, rhPSMA
row,Binder,binding result
1,B18,no binding
2,B19,no binding

# Molecular target: T1, human PSMA (prostate specific membrane …)
# Test: cell-based or functional assay
# Remark: another data set of the same source
row,Binder,"cytotoxicity on PSMA-DU145, 48 h, Mean IC50"
1,B17,> 300 nM

# — US20190023807A1 (CRESCENDO BIOLOGICS, published 2019)
